Results published in US20160046707A1 (EISAI R AND D MANAGEMENT, published 2016).
Changes are numbered by the printed parent chain.

T1: cynomolgus CCL20-secreted alkaline phosphatase (SEAP) fusion (cynomolgus monkey)
T1 construct: also called cCCL20; cynomolgus CCL20-SEAP; not shown: the SEAP reporter (cDNA from Clontech pSEAP-Enhancer) and its junction to CCL20
T1 chain: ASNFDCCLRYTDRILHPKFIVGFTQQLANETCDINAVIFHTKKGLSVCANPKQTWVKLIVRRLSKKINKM

T2: rhesus CCL20-secreted alkaline phosphatase (SEAP) fusion (rhesus monkey)
T2 construct: also called rCCL20; rhesus CCL20-SEAP; not shown: the SEAP reporter (cDNA from Clontech pSEAP-Enhancer) and its junction to CCL20
T2 chain: T1 chain with I38V

T3: recombinant human CXCL9 (human, UniProt Q07325 23-125)
T3 construct: also called MIG
T3 sequence (looked up): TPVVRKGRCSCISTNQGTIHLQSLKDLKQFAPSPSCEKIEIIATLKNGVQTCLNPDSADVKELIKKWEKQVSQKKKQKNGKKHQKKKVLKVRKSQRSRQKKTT

T4: recombinant human CXCL2 (human, UniProt P19875 35-107)
T4 construct: also called GROβ
T4 sequence (looked up): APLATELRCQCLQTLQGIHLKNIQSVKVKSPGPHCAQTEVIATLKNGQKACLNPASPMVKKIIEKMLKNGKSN

T5: recombinant human CCL1 (human, UniProt P22362 24-96, limits assumed)
T5 sequence (looked up): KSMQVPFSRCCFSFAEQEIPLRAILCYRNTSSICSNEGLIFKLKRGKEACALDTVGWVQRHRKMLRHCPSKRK

T6: recombinant human CCL21 (human, UniProt O00585 24-134)
T6 construct: also called 6Ckine/SLC
T6 sequence (looked up): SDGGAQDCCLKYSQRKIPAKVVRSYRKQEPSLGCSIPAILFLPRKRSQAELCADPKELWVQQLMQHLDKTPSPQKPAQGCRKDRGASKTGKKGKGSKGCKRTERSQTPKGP

T7: recombinant human CCL17 (human, UniProt Q92583 24-94)
T7 construct: also called TARC
T7 sequence (looked up): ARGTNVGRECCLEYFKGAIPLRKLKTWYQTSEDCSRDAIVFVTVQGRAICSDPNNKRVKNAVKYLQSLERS

T8: recombinant human CXCL8 (human, UniProt P10145 28-99)
T8 construct: also called IL-8
T8 sequence (looked up): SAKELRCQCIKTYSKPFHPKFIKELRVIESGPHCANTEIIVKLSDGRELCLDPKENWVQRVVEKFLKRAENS

B1: mouse anti-human CCL20 monoclonal antibody 36F7C10 (antibody, V domains shown)
VH: QVQLQQPGAELVKPGASVKMSCKASGYTFTNYWMHWVKQRPGQGLEWIGVIDPSDSYTTYNQKFKGKATLTVDTSSSTAYMQLSSLTSEDSAVYYCTRGNYGVDYAMDYWGQGTSVTVSS
VL: DIQMTQSPASLSASVGETVTITCGASENIYGALNWYQRKQGKSPQLLIYGATNLADGMSSRFSGSGSGRQYSLKISSLHPDDVATYYCQNVLITPYTFGGGTKLEIK
notes: Mouse hybridoma antibody; also called MouseMAb; parental mouse clone 36F7C10
B2: chimeric 36F7C10 antibody (36F7C10-hFc) (antibody, V domains shown)
VH: B1 VH
VL: B1 VL
notes: also called chimeric 36F710; Chimeric MAb
B3: humanized anti-human CCL20 antibody 36LK3/36HC2 (antibody, human IgG1, kappa, V domains shown)
VH: QVQLVQSGAEVKKPGASVKVSCKASGYTFTNYWMHWVRQAPGQGLEWMGVIDPSDSYTTYAQKFQGRVTMTVDTSTSTVYMELSSLRSEDTAVYYCARGNYGVDYAMDYWGQGTLVTVSS
VL: DIQMTQSPSSLSASVGDRVTITCGASENIYGALNWYQRKPGKAPKLLIYGATNLADGVPSRFSGSGSGRDYTLTISSLQPEDFATYYCQNVLITPYTFGQGTKLEIKR
notes: expressed in HEK293 cells; also called HC2/LK3; HC2LK3
B4: humanized anti-human CCL20 antibody 36LC3/36HC2 (antibody, human IgG1, kappa, V domains shown)
VH: B3 VH
VL: B3 VL with G24R, R38Q, D70Q, T72S, Q100G
notes: expressed in HEK293 cells; also called HC2/LC3; HC2LC3

Target: T9, human CCL20 anchored via a His-tag (human, UniProt P78556 27-96)
T9 construct: Construct not described; also called His-tag anchored CCL20; not shown: His-tag
T9 sequence (P78556 27-96 limits assumed): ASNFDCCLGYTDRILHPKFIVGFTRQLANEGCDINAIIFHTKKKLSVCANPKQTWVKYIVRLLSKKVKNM
Assay: ELISA on His-tag anchored human CCL20, antibody titrated (x axis 'Ab conc. (ug/ml)', falling from left to right), Abs 450

| Binder | EC50 (read off the curve) |
| --- | --- |
| B1 | ~5 ng/mL |
| B2 | ~8 ng/mL |
| B3 | ~6 ng/mL |
| B4 | ~6 ng/mL |

Target: T1, cynomolgus CCL20-secreted alkaline …
Assay: SPR (Biacore), CCL20-SEAP captured by anti-SEAP, antibody injected (bivalent format), 1:1 Langmuir
Protocol: (§1) We also used surface plasmon resonance (Biacore™) analysis to test whether HC2/LC3 and HC2/LK3 can bind to mouse, cynomolgus, or rhesus macaque CCL20 orthologs. Monoclonal mouse anti-human placental alkaline phosphatase was immobilized on all four flow cells of a CM5 chip at a flow rate of 25 μl/min. 25 μl of a 2 nM solution of human, rhesus, cynomolgus, or mouse CCL20-SEAP in HBS-EP buffer was injected over flow cell 2, 3, or 4. For antibody binding, 240 μl of 0-80 nM dilutions of HC2/LC3, HC2/LK3, or 2F5-5 MAb in HBS-EP buffer (or buffer alone) was injected over all four flow cells at a flow rate of 50 μl/min. Dissociation followed for 45 min. Flow cell 1 (anti-SEAP alone) was used as a reference for all flow cells. Regeneration of the flow cells was performed with 10 mM glycine at pH 2.25. Due to regeneration effects on the capturing capacity of the chips, antibody injections were performed sequentially from low to high concentration. Data fitting was performed using a 1:1 Langmuir model.
(§2) In contrast, chimeric, HC2/LC3, and HC2/LK3 antibodies effectively bound to human, rhesus, and cynomolgus CCL20 (Table 17).

| Binder | Kd | koff | kon |
| --- | --- | --- | --- |
| B2 | 0.0132 nM | 5.04e-05 s⁻¹ | 3.83e+06 M⁻¹ s⁻¹ |
| B3 | 0.0283 nM | 0.000149 s⁻¹ | 5.28e+06 M⁻¹ s⁻¹ |
| B4 | 0.0155 nM | 0.000134 s⁻¹ | 8.64e+06 M⁻¹ s⁻¹ |

Target: T2, rhesus CCL20-secreted alkaline …
Assay: as above
Protocol: as §1, §2

| Binder | Kd | koff | kon |
| --- | --- | --- | --- |
| B2 | 0.00605 nM | 1.78e-05 s⁻¹ | 2.94e+06 M⁻¹ s⁻¹ |
| B3 | 0.0312 nM | 8.21e-05 s⁻¹ | 2.63e+06 M⁻¹ s⁻¹ |
| B4 | 0.0182 nM | 7.51e-05 s⁻¹ | 4.13e+06 M⁻¹ s⁻¹ |

Target: T10, human CCL20-secreted alkaline phosphatase (SEAP) fusion (human, UniProt P78556 27-96)
T10 construct: also called hCCL20; human CCL20-SEAP; not shown: secreted alkaline phosphatase (SEAP), cDNA from pSEAP-Enhancer vector (Clontech)
T10 sequence (P78556 27-96): as the sequence (P78556 27-96 limits assumed) above
Assay: as above
Protocol: as §1, §2

| Binder | Kd | koff | kon |
| --- | --- | --- | --- |
| B2 | 0.00716 nM | 2.08e-05 s⁻¹ | 2.9e+06 M⁻¹ s⁻¹ |
| B3 | 0.0118 nM | 3.39e-05 s⁻¹ | 2.88e+06 M⁻¹ s⁻¹ |
| B4 | 0.00471 nM | 2.68e-05 s⁻¹ | 5.69e+06 M⁻¹ s⁻¹ |

Target: T3, recombinant human CXCL9
Assay: ELISA, plate-bound chemokine (1 ug/ml), antibody 10 ug/ml, OD450
Protocol: (§3) The wells of a 96-well plate were coated with 1 μg/ml of the recombinant human chemokines in PBS (−). After overnight incubation at 4° C., the wells were blocked with 1× Block-Ace (Dainippon Sumitomo Pharma, UK-B80) for 1 hour at room temperature. After washing twice with 0.02% Tween 20/PBS (−), we added 50 μl of 10 μg/ml purified 36F7C10, chimeric 36F710, HC2/LK3, or HC2/LC3 in 0.02% Tween 20/PBS (−) to each well. The wells were incubated for 1 hour at room temperature and washed three times as described in Example 3. […] After washing five times, a TMBZ (3,3′,5,5′-tetramethylbenzidine) solution (1%, in N,N-Dimethylformamide) was added to the wells and incubated for 15-30 minutes. The reaction was stopped by adding an equal volume of a 2 M H₂SO₄ stopping solution, and the optical density was read at 450 nm by ARVO (PerkinElmer).

| Binder | binding result |
| --- | --- |
| B1 | no binding (tested: 10 ug/ml) |
| B2 | no binding (tested: 10 ug/ml) |
| B3 | no binding (tested: 10 ug/ml) |
| B4 | no binding (tested: 10 ug/ml) |

Target: T4, recombinant human CXCL2
Assay: as above
Protocol: as §3

| Binder | binding result |
| --- | --- |
| B1 | no binding (tested: 10 ug/ml) |
| B2 | no binding (tested: 10 ug/ml) |
| B3 | no binding (tested: 10 ug/ml) |
| B4 | no binding (tested: 10 ug/ml) |

Target: T5, recombinant human CCL1
Assay: as above
Protocol: as §3

| Binder | binding result |
| --- | --- |
| B1 | no binding (tested: 10 ug/ml) |
| B2 | no binding (tested: 10 ug/ml) |
| B3 | no binding (tested: 10 ug/ml) |
| B4 | no binding (tested: 10 ug/ml) |

Target: T6, recombinant human CCL21
Assay: as above
Protocol: as §3

| Binder | binding result |
| --- | --- |
| B1 | no binding (tested: 10 ug/ml) |
| B2 | no binding (tested: 10 ug/ml) |
| B3 | no binding (tested: 10 ug/ml) |
| B4 | no binding (tested: 10 ug/ml) |

Target: T7, recombinant human CCL17
Assay: as above
Protocol: as §3

| Binder | binding result |
| --- | --- |
| B1 | no binding (tested: 10 ug/ml) |
| B2 | no binding (tested: 10 ug/ml) |
| B3 | no binding (tested: 10 ug/ml) |
| B4 | no binding (tested: 10 ug/ml) |

Target: T8, recombinant human CXCL8
Assay: as above
Protocol: as §3

| Binder | binding result |
| --- | --- |
| B1 | no binding (tested: 10 ug/ml) |
| B2 | no binding (tested: 10 ug/ml) |
| B3 | no binding (tested: 10 ug/ml) |
| B4 | no binding (tested: 10 ug/ml) |
